Source: US20250257149A1 (GLYCOTOPE, published 2025)

B1: humanized antibody PankoMab (with Fab glycosylation) (antibody, human IgG1, kappa)
heavy: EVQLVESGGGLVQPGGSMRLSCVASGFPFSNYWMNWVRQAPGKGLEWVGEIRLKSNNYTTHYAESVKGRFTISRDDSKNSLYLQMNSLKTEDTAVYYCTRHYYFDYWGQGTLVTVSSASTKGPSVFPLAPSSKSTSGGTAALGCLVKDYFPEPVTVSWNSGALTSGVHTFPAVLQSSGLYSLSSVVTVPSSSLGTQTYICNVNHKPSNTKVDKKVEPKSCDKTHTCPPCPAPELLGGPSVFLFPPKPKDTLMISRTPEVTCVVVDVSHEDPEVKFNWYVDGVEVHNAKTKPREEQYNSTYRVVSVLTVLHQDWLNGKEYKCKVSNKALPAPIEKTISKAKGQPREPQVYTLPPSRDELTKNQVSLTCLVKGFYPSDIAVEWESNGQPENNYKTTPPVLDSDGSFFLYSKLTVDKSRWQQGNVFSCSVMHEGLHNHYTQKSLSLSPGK
light: DIVMTQSPLSNPVTPGEPASISCRSSKSLLHSNGITYFFWYLQKPGQSPQLLIYQMSNLASGVPDRFSGSGSGTDFTLRISRVEAEDVGVYYCAQNLELPPTFGQGTKVEIKRTVAAPSVFIFPPSDEQLKSGTASVVCLLNNFYPREAKVQWKVDNALQSGNSQESVTEQDSKDSTYSLSSTLTLSKADYEKHKVYACEVTHQGLSSPVTKSFNRGEC
modifications: N-glycan on Asn54 (Kabat/EU numbering; amino acid position 57) in CDR-H2
notes: IgG1 kappa made in NM-H9D8 cells (for the FcγRIIIa assay also in NM-H9D8-E6Q12, low fucose); also called PM; PankoMab-GEX®
B2: PankoMab N54D (antibody, V domains shown)
VH: EVQLVESGGGLVQPGGSMRLSCVASGFPFSNYWMNWVRQAPGKGLEWVGEIRLKSNDYTTHYAESVKGRFTISRDDSKNSLYLQMNSLKTEDTAVYYCTRHYYFDYWGQGTLVTVSS
VL: DIVMTQSPLSNPVTPGEPASISCRSSKSLLHSNGITYFFWYLQKPGQSPQLLIYQMSNLASGVPDRFSGSGSGTDFTLRISRVEAEDVGVYYCAQNLELPPTFGQGTKVEIKR
notes: Light chain unchanged; also called PM-N54D
B3: humanized antibody PankoMab N54Q (without Fab glycosylation) (antibody, human IgG1, kappa)
heavy: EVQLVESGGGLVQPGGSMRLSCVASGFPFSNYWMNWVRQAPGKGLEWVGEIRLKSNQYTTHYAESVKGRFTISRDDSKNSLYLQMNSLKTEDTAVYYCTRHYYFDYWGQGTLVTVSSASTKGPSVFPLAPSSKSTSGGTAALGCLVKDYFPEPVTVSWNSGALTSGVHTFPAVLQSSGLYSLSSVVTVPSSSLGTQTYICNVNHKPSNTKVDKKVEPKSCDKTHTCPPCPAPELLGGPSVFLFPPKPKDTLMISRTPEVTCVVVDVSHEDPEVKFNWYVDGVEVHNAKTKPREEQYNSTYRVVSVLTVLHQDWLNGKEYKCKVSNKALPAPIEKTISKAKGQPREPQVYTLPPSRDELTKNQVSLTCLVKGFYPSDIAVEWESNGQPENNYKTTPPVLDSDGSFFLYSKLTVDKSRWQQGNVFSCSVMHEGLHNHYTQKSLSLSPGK
light: B1 light
notes: IgG1 kappa; Made in NM-H9D8 cells (for the FcγRIIIa assay also in NM-H9D8-E6Q12, low fucose); also called PM-N54Q; PM N54Q w/o Fab glyc

Legend:
[1] = target: T1, TA-MUC1 (tumor-associated MUC1) on human tumor cell lines (human, UniProt P15941 24-1255, aberrant tumor-associated O-glycosylation); test: flow cytometry on HSC-4 cells, detection with PE-conjugated goat anti-human IgG
T1 construct: whole, on cells; also called cellular TA-MUC1; cell surface TA-MUC1
T1 sequence (P15941 24-1255): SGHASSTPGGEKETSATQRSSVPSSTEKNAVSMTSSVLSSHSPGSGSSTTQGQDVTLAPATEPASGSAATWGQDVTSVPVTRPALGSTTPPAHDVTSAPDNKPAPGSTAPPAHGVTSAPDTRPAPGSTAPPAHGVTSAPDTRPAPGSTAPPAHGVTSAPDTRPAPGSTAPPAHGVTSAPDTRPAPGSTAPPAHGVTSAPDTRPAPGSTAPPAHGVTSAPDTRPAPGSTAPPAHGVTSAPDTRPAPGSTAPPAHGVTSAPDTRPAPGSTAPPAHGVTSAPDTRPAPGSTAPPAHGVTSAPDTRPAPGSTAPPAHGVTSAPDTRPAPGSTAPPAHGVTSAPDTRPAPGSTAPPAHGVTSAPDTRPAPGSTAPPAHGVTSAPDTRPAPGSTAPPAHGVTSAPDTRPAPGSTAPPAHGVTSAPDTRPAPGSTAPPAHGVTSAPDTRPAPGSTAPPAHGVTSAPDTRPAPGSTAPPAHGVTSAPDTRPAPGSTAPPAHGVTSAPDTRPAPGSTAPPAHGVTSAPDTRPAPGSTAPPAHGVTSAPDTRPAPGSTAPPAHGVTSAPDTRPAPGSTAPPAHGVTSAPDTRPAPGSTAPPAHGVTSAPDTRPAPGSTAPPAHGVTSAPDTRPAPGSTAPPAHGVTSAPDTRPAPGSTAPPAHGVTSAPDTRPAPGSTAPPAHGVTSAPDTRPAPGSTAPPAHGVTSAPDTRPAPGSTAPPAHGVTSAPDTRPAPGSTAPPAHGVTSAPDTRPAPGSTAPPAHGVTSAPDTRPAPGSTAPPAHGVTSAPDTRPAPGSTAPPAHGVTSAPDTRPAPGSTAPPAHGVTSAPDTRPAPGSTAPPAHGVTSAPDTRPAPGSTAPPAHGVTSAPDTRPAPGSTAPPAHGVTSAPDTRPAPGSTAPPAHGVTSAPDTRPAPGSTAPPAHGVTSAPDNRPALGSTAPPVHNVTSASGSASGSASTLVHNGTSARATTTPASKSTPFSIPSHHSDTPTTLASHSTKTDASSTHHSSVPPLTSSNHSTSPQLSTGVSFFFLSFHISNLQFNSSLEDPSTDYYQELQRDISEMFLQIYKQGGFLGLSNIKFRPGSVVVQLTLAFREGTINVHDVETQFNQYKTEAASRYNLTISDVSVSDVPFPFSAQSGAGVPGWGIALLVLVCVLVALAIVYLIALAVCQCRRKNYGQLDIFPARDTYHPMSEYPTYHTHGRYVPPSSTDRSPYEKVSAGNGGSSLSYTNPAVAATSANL
Description: (§1) N54Q and N54D were transiently expressed and purified by protein A chromatography. Binding of the two variants to cell surface TA-MUC1 was compared to PM with Fab glycosylation using two different carcinoma cell lines. The tongue squamous cell carcinoma line HSC-4 expresses TA-MUC1 to a medium degree and the ovarian carcinoma cell line CaOV-3 to a high degree. Tumor cells were incubated with antibodies in serial dilutions and bound antibodies were detected using a Phycoerythrin-conjugated goat anti-human IgG (heavy and light chain) antibody. A human IgG control was included to control for background staining. Binding was analyzed by flow cytometry.

[2] = target: T1, TA-MUC1 (tumor-associated MUC1) on …; test: flow cytometry on CaOV-3 cells, detection with PE-conjugated goat anti-human IgG
Description: as §1

[3] = target: T1, TA-MUC1 (tumor-associated MUC1) on …; test: saturation binding of 111In-labelled antibody on ZR-75-1 cells
Description: (§2) Binding of the Fab-deglycosylated version of the MUC1-specific antibody PankoMab (PM-N54Q) on TA-MUC-1 positive human tumor cell lines was evaluated using radiolabeled antibodies by saturated binding analysis on the human mamma carcinoma cell lines ZR-75-1 and MCF-7 in comparison to Fab-glycosylated PankoMab-GEX®. The antibodies were chelated with a 12-fold molar excess of p-SCN-Benzyl-DTPA in 50 mM sodium carbonate, 150 mM NaCl, pH 8.7, for 2 h at 37° C., followed by over-night incubation at 2-8° C. Free chelator was removed over desalting columns and dead-end filtration (50 kDa cut-off, 6× buffer exchange to PBS). The chelated antibodies were radiolabeled with carrier-free ¹¹¹In (2 μCi/μg antibody) for 1 h at 37° C. in 6 mM phosphate, 1.6 mM KCl, 80 mM NaCl, 0.2 M Na-acetate, 0.1 M HCl. The preparations were neutralized by addition of 8-9 fold volume of 10× concentrated PBS. About 1/50 volume of fetal bovine serum were added to the neutralized labelled antibody preparation. Per cell binding approach 1*10⁶ cells were used. Several concentrations of labelled antibodies were added to the pelleted cells (30-1000 ng/200 μL in 1% BSA/PBS). The resuspended cell-antibody mixtures were measured in a gamma-counter and incubated 1 h at 4° C. […] The cell pellet was then measured for bound ¹¹¹In-labelled antibody in a gamma counter. […]

[4] = target: T1, TA-MUC1 (tumor-associated MUC1) on …; test: saturation binding of 111In-labelled antibody on MCF-7 cells
Description: as §2

[5] = target: T1, TA-MUC1 (tumor-associated MUC1) on …; test: saturation binding of 111In-labelled antibody on ZR-75-1 and MCF-7 cells
Description: as §2

Binder	EC50 (read off the curve) [1]	EC50 (read off the curve) [2]	Ka [3]	Ka [4]	fold higher binding than PankoMab-GEX® [5]
B1	~300 ng/mL	~3 ng/mL	1.2e+07 M⁻¹	3e+07 M⁻¹	
B2		~4 ng/mL			
B3	~100 ng/mL	~2 ng/mL	3.4e+07 M⁻¹	7.8e+07 M⁻¹	> 2.5 fold
